Reference: the DeepSol protein solubility set

Experiment: soluble on expression in E. coli; label from the status in PepcDB or PDB records

Row | Sequence | soluble on expression in E. coli
1 | TSSDTQNNKTLAAMKNFAEQYAKRTDTYFCSDLSVTAVVIEGLARHKEELGSPLCPCRHYEDKEAEVKNTFWNCPCVPMRERKECHCMLFLTPDNDFAGDAQDIPMETLEEVKASMA | soluble
2 | GPGSMRGVYPYLFAEDMRSRGAGEPAKKEVKKNKFVATINWELFTRVERMDVVFSPRPKGVTTGNEGDIADGCETGAPAVWSFVPVGVPHGENYRANAFLVPMHDKSESPRLLLYVSDISELEDRFFTDLARSKVLLGVDPAVPIEVLVLDMLSRRPYVAHLHVEASIAAAKRINAAKTYYVGMSHRINYDEMMQELQQLGLGATMEMGYDGCVVSVGDSGLQHLSGRL | not soluble
3 | MKGRVRIRGIYATALTSIFSSLSYEIVQQSVEISERFMQEINNLSADITIKDFEDDRGKIIVMGNGIIEDDLRNVFKYSFHWRSPVKLYSVIEIDESCTYANFKVEPCLREGIVIKPPYDGKIILSETKAVSKYAIVWRGKGITTFSEHIVDEEEKMRLLTLSLPLNRKGYNVKWRSNAKYVALNELKEDLERLILRYENREFRDQGEDFYLITLSLPDKLYLDEVRKNVVDTVKYHHMLKLSYNREVDSLEKDKKGSLGKLLEGLISDFLKIEHIKADGKVIYLRGGKVIEKEVNDNGYRIVLRREFEGNGILDGIGKKIEEGDYDIVEYNSDKWYQIHKYYSGIDNSLKGVYINISTPPELLRGKIRYLDLEIDIAIRDSEIALLDEDELNKKSIYMPSSLVNKAKEVVNYLINRIQQNKLS | not soluble
4 | MAEGVADRIIGLYSLGNSTREISDWLKENLGNRVSDETISSITDRVLPEIKVWRSRILDDVYSIVWINAIHYKVTDERGCTVTRAIYNVLGIDKEGHKDLLGMYISKNEGANFWLNVLTDLQNRGVHDILIAYVDGLKGWMPPKVFFRTQYYNFVSSTRYGTPLNMSVVSIRRNSSKT | not soluble
5 | MRVLITGATGGLGGAFARALKGHDLLLSGRRAGALAELAREVGARALPADLADELEAKALLEEAGPLDLLVHAVGKAGRASVREAGRDLVEEMLAAHLLTAAFVLKHARFQKGARAVFFGAYPRYVQVPGFAAYAAAKGALEAYLEAARKELLREGVHLVLVRLPAVATGLWAPLGGPPKGALSPEEAARKVLEGLFREPVPALLEV | soluble
6 | MYGKLLICATASINVININHYIVELKQHFDEVNILFSPSSKNFINTDVLKLFCDNLYDEIKDPLLNHINIVENHEYILVLPASANTINKIANGICDNLLTTVCLTGYQKLFIFPNMNIRMWGNPFLQKNIDLLKNNDVKVYSPDMNKSFEISSGRYKNNITMPNIENVLNFVLNNEKRPLD | soluble
7 | MGSDKIHHHHHHMTKEQSYPPTCIDCGTQNCKFKERTYPEFCLTTHLEQEDLEWALKQYNDNNKIMAASAEVEYEGYCRLTRVEEIMTFARKMGYKKLGIAYCIGLVNEARIFARILRANGFEVYSVICKVAGIAKSSIGIPKECEKIGAAMCNPILQARLLNQAYTELNVVIGLCVGHDSLFYKYSNAYTTTLVTKDRVTGHNPAAALYTANSYYRKKLMPEGEQSK | not soluble
8 | MATKKTFTDETYFKLSEAVYQDGTLNSKKINIELSDRTKSNWKVVSKLNDRATNTQAFAVIPEEKGKDGKIYYNHNNMIFVYRGTKESKDFGSDIINVFAGRNSRTSLDRKSKNPFQVSKEWTEEVLKEFNPKNPTSTGHSLGGALSHYNSILYDFNATTYAAPNIYQLLPEDKQKKVRDGFYNNSIIDFTHDDDMIGTFDQFSSPIIGSQYIAERNNVKVGAKGLFGAIPGHYNETFEGCFSSDGTMKLKVDVDSIIKHAQDIDDIIQSLQTNNADLENLEEKLQIGSKKIQNQLEEEIRIGGAYSELTTWDIDDVLTELCTKYKNGVYCFYNPNEFEKYYEMNHQTRRLLKNFQIELIDAAQSFRETDTRLGKWISNNN | not soluble
9 | MASDRKRQIIEAAAQSFAAFGYKATTMEQIAKLANVGKGTIYTFFKSKEELLDEIVSGLIMEIKAEAELAMDSSLPFSENVHRALYRILEFRQRHQLTAKLLQEVRNIGTVAVQEVLAKLDRAMVEFIRQKIDAAVEKGEIRPCNSEITAFLMLKTYIALIVDWEKDHEPLTKEQIAELFTLYFLQGLSR | not soluble
10 | MGSDKIHHHHHHMTTLNAIFRPFIQPHRYKIAKGGRGSGKSWAIARLLVEIARRGTYRFLCAREFQASMADSVIQLIADTIQREGYLKEFEIQKAYIRHLAATDSLFMFYGIKNNVTKIKSLEGIDIAWVEEAEAVTKESWDILIPTIRKPGSEIWVSFNSKNILDDTYQRFVVNPPDDICLLTVHYTDNPHFPEVLRLEMEECKCKDYDLYLHIWEGQPVADSDLAIIKPLWIAAAVDAHMTLGFDAVGEKRLGFDVADEGKTATPCALCRAQSC | not soluble
11 | MAKLLITGGCGFLGSNLASFALSQGIDLIVFDNLSRKGATDNLHWLSSLGNFEFVHGDIRNKNDVTRLITKYMPDSCFHLAGQVAMTTSIDNPCMDFEINVGGTLNLLEAVRQYNSNCNIIYSSTNKVYGDLEQYKYNETETRYTCVDKPNGYDESTQLDFHSPYGCSKGAADQYMLDYARIFGLNTVVFRHSSMYGGRQFATYDQGWVGWFCQKAVEIKNGINKPFTISGNGKQVRDVLHAEDMISLYFTALANVSKIRGNAFNIGGTIVNSLSLLELFKLLEDYCNIDMRFTNLPVRESDQRVFVADIKKITNAIDWSPKVSAKDGVQKMYDWTSSILEHHHHHH | soluble
12 | MADDGLGDVPMETESMPQYTISHVIEAHKSDTKALAVTQGGCLISGGRDETVKFWAKKGKQYTKTHAFEQPKGITVNSIAYAELADGWRLFVGRRDGTIAVFGPSQAEPYAIFNEHKQNVCCLHINEKATHMLSGSWDSNVIIWPITELNSSSFTTIVCPGHTLSVWALASFPDLPNTYLSASADKTIRMWFGDTTLSVFKGHTDVVRALVVLSSSHFLSAGNDGHIIHWDVASASILRKFATQAHEFIYSMTLSDSHILTTGEDGTLEFWAIDGGKDGNLAIVSEAVIQLPTTNTWDAKVLLNSDIAVAGSDGRIYIMTTDKNRKADDDILDAFDAEVVAKLTAKTERMKQEEHETVTIKVDIDDRPTQLNLKYKKGTDPGLCAQEFLSENNLPIHYLEEITRFIKDRIPEARAFDLKSGKKVIVDGKEYDYALGVNFGKGEPDKQMPFNVNESPQFAAQRFVERHQLPVSVIPSLAGMISQEMDKLSKGAASAQSGYEDPFTGPGRYVPQGSSNSGGHGADPFTGSGRYVPQASNSSGFDTGFSGDPLTGDGGYRASAPENTGSHAVPLSSLPQNKKKPRGPLVPVPDFYIIGLAGKGEKAIAKLKELNEKQDAFQLNPDQINGLEELFVLPTSSNYSSEVTQSAFEMSLQWPVEHLTPVLDFLRIALTHHSLNSYFCDRERGQELVGRLIAILVSDPADVALKVLVCRCIANAFSHPVGRNLFASTELSTLAPLVVRQVLNEKTVLQMSAATALANWSLALLQQSEQCEQLGPKEDLLRAILNGIESVDSFGYLGEDAIIRLLQALVTVMWGDASVIRLAKNRNIAQIAARLKDAVSNDSGKNIARDIVEMTYAV | not soluble
13 | KGDVDEKLLDKGIEAVLDQTDYVNGGFGSAPKFHHAKAVELLLTHHFFTGDEEVLKAAEITLDAMARGGIYDHLLGGFFRYSTDAKWVTPHYEKMLYDNAELLYLYSIAYALTGKRLYQKIADGIVEYYRKFGCSNEGGFYASQDADIGELDEGGYYLFSDRELKEILDEREFRIATLYYDIQGERKLPRIFLTEEEISKILGVSVEEVERAVNSARRKMLEFREQREMPYIDTTIYAGWNGLMIEALCMHHKVFGDNWSLEMAEKTANRLLKEFWDGRELLHTHNVEGLSEDYIFFARGLLALFEVTQRHEYLEKCFEIVDSAVEKFWDGEDGGFFD | not soluble
14 | GAITKAVFDNEQGQAQRLQTSSSVEHGQMLFKDANLKTPSDVLNAFAKLDSKMVKSHAAELSQLAERAMTEVMLETDSGKNLKALIGDDAVKSLAVRVVKDYGGGVAAAQKNPEVRINQMQAVFDMEVMHLKAAQRHIEGLASTDLNQGVYAEGLPEDAFNKAGVTNNVERAAAWIINASNSKGNDAENITSLLKEYATNGKDLLNMDNLKELHARLVPNVERDYRGPNISGGTLPSSIGGEGMLKQHIEGFLKENPVADKDLGKHLFAGVIGYHGFTDGNGRMGRMLYAIAELRNDSFNPLAMNAENSLHGIK | soluble
15 | MPIRAARASLRRMDSDFLIIGGGIAGVSAAARLSELGSVTLLEAEDALAHHASSRSAALYEPRYGLPPVVELSLASGDFFRAADGILSPRGLLVVGREAEREQFEDETVGMHLERISAEEARAAVPILRPDVTLAARADHAWDIDTDRLLQGFAREARARGARIVTKARVGAIARDGAGWRVEAGESYRARILVNAAGAWADGVAALSGVRPLGLVPYRRSMARIPAPGGHDISRWPMIFGVGESWYAKPDAGALIVSPADEDPQEPHDAWADDMVLAEGLARYEEMVTEPVTRLLASWAGLRTFAPDRVLVIGEDPAAPGFFWLAGQGGYGFQTCPAASRLAADLIGGRSPEVPAALIAALSPDRFALEHHHHHH | not soluble
16 | GMSQATAKVNREVQAFLQDLKGKTIDHVFFVACGGSSAIMYPSKYVFDRESKSINSDLYSANEFIQRNPVQLGEKSLVILCSHSGNTPETVKAAAFARGKGALTIAMTFKPESPLAQEAQYVAQYDWGDEALAINTNYGVLYQIVFGTLQVLENNTKFEQAIEGLDQLQAVYEKALKQEADNAKQFAKAHEKESIIYTMASGANYGVAYSYSICILMEMQWIHSHAIHAGEYFHGPFEIIDESVPFIILLGLDETRPLEERALTFSKKYGKKLTVLDAASYDFTAIDDSVKGYLAPLVLNRVLRSYADELAEERNHPLSHRRYMWKVEY | soluble
17 | MGHHHHHHSHMPPHPAIFFYCLLRQGLTMLPRLVLNFWAQAVHLPRPPRVLGLQAGGTAPGQKKLFLTSHFPPASPLPLCFSLQQNFKKHSPRSPPGILGSLYPGFCSPIATSPFAKGTRGLRVVGSSGRLSASS | not soluble
18 | MSLTAPHIVDPAGLLGEALSEASPDLMRSLLQTVINALLSADADAVVGAEWGQPTPGRRSQRNGYRHRGLDTRVGTIDVAVPKLRKGTYFPDWLLERRKRAESALITVVADCYLAGVSTRRMDKLVKTLGIDSLSKSQVSRMATDLDEHVEQFRHRPLDSAGPFTFVAADALTMKVREGGRVVNGVVLLATGVNGDGHREVLGMRVVTSETGPAWNEFFADLVARGLAGVRLVTSDAHAGLREAIAANLPGAAWQRCRTHYAANLMSICPKSMWPAVKAMLHSVYDQPDAPAVAAQFDRLIDYVTDKLPAVAEHLSAAREDILAFTAFPKDVWTQIWSNNPAVIWSPAVGVVDVRHEASGSLVLLSGRGYLQPSRKQSLRRKSACYTGGFANLVGEGHHHHHH | soluble
19 | MCKHCGAAVLFVKDDRWHVFDAKPSEEGEWRIRSRWAANVAAEKTTVTRLTESKLRRARLMGEPLFRPHFQTCPANPRAKILQEKRRHG | not soluble
20 | GPGSMEQGAFNDVAKKALEFRNRYYKMLDDPQDRLNVAGLYAPDVPMVCEWNGHPLSTVDDVRNYISALPKTSHQVDMVDAQPLPDNQDGDSFLLTVHGIVTYNDEHRREFYQRMVIRRFEQRYYILNDYYRWLSERSQ | soluble
21 | MKKVYFATKADVERLHSFFGQANKKDDKINELYAQFMILEEAEEIRAVIGYEQSGEDVLIRSCLFTPHVDKQTFLYFFEMFLQYMKEKSVQQLYLLTNHPQSVPIFQFFDFFTIEKDEVPEGIQQLEHFCKNIKEQNAIILNCQLFTKLSTD | not soluble
